Molecular target: ornithine decarboxylase (ODC) (UniProt P11926)
Assay: cell-based or functional assay

ornithine decarboxylase (ODC), sequence (P11926 whole entry): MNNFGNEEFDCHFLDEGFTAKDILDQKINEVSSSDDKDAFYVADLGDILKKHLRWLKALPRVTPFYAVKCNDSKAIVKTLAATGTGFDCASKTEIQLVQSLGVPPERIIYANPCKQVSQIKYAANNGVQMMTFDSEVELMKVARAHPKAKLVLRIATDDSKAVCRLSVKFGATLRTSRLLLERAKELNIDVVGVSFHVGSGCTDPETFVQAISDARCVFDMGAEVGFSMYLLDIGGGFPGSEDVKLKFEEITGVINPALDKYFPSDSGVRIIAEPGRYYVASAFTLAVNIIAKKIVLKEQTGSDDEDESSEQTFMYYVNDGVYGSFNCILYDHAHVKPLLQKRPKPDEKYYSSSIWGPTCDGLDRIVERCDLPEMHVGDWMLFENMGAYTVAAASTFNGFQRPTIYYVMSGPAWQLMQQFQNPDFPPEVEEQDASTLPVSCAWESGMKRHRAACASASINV

decrease in activity of purified ODC (released CO2) after 1 h with 100 µM peptide: 40%
Substance: QEP (glutamine-glutamic acid-proline tripeptide)
